In patent US20250297026A1 (PETMEDIX, published 2025):
Substitutions are numbered along the chain they refer to.

T1: canine CD20 (UniProt Q3C2E2 1-297)
T1 chain: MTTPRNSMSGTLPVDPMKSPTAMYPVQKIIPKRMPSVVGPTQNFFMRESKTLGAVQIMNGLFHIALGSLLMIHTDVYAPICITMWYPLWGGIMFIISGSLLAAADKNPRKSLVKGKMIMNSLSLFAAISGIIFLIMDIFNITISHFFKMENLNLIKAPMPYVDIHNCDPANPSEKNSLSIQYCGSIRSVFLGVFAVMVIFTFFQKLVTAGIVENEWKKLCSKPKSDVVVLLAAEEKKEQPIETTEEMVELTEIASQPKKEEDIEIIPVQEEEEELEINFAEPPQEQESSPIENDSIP

T2: canine CD20 (canine, UniProt Q3C2E2 1-297)
T2 chain: T1 chain

B1: PMX003 mAb (antibody, V domains shown)
VH: EVQLVESGGDLVKPGGSLRLSCVASGITFSRYHMSWVRQAPGKGLQWVAYINSGGSSTSYPDAVKGRFTISRDNAKNTLYLQMDSLRAEDTALYYCTTFDYWGQGTLVTVSS
VL: SYVLTQLPSKNVTLKQPAHITCGGDNIGSKSVHWYQQKLGQAPVLIIYYDSRRPTGIPERFSGANSGNTATLTISGALAEDEADYYCQVWDSSANVFGGGTHLTVLG
B2: PMX070 (antibody, V domains shown)
VH: B1 VH with V2M, I27F, S57P, S59N, P61A, D84N, L93V, F99Y, Y101Q
VL: SYVLTQLPSKSVTLKQPAHITCGGDNIGSKSVHWYQQKLGQAPVLIIYYDSSRPTGIPERFSGANSGNTATLTISGALAEDEADYYCQVWDTSANVFGGGTHLTVL
B3: PMX115 mAb (antibody, V domains shown)
VH: EMQLVESGGALVKPGGSLRLSCVASGFTFRRYHMSWVRQAPGQGLQWVAYIDSDGSPTSYGDSVKGRFTISRDNAKNTLFLQMNSLRVDDTAVYYCTTLDYWGRGTLVTVSS
VL: B2 VL with L7V, S29G, V44L, S51T, S52R, G76R, T92S, A94G, L106I
B4: PMX001 mAb (antibody, V domains shown)
VH: B1 VH with I27F, R31S, S59T, P61A, N77K, D84N, L93V, T97S
VL: B1 VL with K10R, S51T, A94G
notes: Fully canine mAb; Expressed in CHO cells
B5: PMX005 mAb (antibody, V domains shown)
VH: B1 VH with I27F, S57D, T58S, S59D, P61A, D84N, L93V, T98S, F99L
VL: B1 VL with R52S, S92R, A94G
notes: Fully canine mAb with dog IGGB and dog IGLC5 constant regions; Expressed in CHO cells
B6: PMX002 mAb (antibody, V domains shown)
VH: EVQLVESGGDLVKPGGSLRLSCVASGIIFSNYHMSWVRQVPGKGLQWVAYINSGGSTINYADGVKGRFTISRDNAKNSLYLQMNSLRGEDTAVYYCTTYDSWGQGTLVTVSS
VL: B1 VL with R52S, A94V
notes: as for B5
B7: PMX004 mAb (antibody, V domains shown)
VH: EVQLVESGGELVKPGGSLRVSCVASGITFSRYHMSWVRQAPGKGLQWVAFINTDRSSPKYADSVKGRFTISRDNAKNTLYLQMNSLRAEDTAIYYCTSFDYWGQGTLVTVSS
VL: B1 VL with R52S
notes: as for B5

How the values were obtained:
[1] = molecular target: T1, canine CD20; assay: flow cytometry, cCD20-expressing MDCK II cells; apparent Kd (EC50 of binding)
[2] = molecular target: T2, canine CD20; assay: cell-based or functional assay
[3] = molecular target: T2, canine CD20; assay: flow cytometry on cCD20-expressing MDCK II cells, 10 ug/ml antibody, FITC anti-canine IgG (FIG. 3A)
Protocol: FIG. 3. Binding assessment of anti-canine CD20 mAbs using flow cytometry. PMX001, PMX002, PMX003, PMX004, PMX005, 1 E4-cIGGB, 4E1-7-clGGB (see A) and PMX006, PMX007, PMX008, PMX009, PMX010, PMX011 (see B) and PMX003, PMX066, PMX067, PMX069, PMX070, PMX071, PMX072, PMX073, PMX074, PMX075, PMX076, PMX077, PMX078, PMX079, PMX080, PMX081, 1E4-cIGGB, 4E1-7-clGGB (see C) were applied to cCD20-expressing MDCK II cells at 10 μg/ml. Rituximab-clGGB (grey shadow) was used as the isotype control and presented in each plot. (D) Affinity determination of PMX003, PMX115 and PMX070 mAbs. Binding of 1:2 serially diluted antibodies to cCD20-expressing MDCK II cells was assessed in a binding assay and the mean values of the fluorophore signal was determined. The plot of mean fluorescence intensity (MFI) versus concentration was used to determine EC50 of binding, using non-linear regression, which is the apparent Kd of antibody binding to cell surface expressed canine CD20.
HEK293 cells or MDCK II cells were stably transfected with a vector encoding the full length of canine CD20 cDNA. Binding of antibodies to these cells were assessed using flow cytometry. […] Cells incubated with anti-canine IgG FITC secondary antibody and without primary anti-canine CD20 antibody, or with isotype control primary antibody, were used as negative controls. The data were acquired on either a Beckman Coulter CytoFLEX or a BD Accuri C6 Plus flow cytometer and analysed using FlowJo software. […] Graphs using mean fluorescence intensity (MFI) values of the FITC channel vs concentration of antibody were plotted in GraphPad Prism (FIG. 3D).

Row | Binder | Kd [1] [nM] | ADCC EC50 [2] [nM] | ADCC Maximum killing (%) [2] [%] | CDC EC50 [2] [nM] | CDC Maximum killing (%) [2] [%] | binding result [3]
1 | B1 | 1.7 | 0.89 | 34 | 25 | 90.4 | –
2 | B2 | 1.1 | 0.29 | 51 | 11.2 | 97.1 | –
3 | B3 | 0.8 | – | – | – | – | –
4 | B4 | – | – | – | – | – | binds
5 | B5 | – | – | – | – | – | binds
6 | B6 | – | – | – | – | – | binds
7 | B7 | – | – | – | – | – | binds
